Residue numbers refer to the chain shown, from its start.

Experimental findings from patent US20120237528A1 (Janssen / Centocor, published 2012) are described below.

The labels stand for the following.
B1: M1583 (antibody, V domains shown)
VH: EVQLVQSGAEVKKPGESLRISCKGSGYTFGPYWIEWVRQMPGKGLEWMGDIIPGSGWTNYSPSFQGHVTISADKSISTAYLQWSSLKASDTAMYYCARSGYYGNSGFAYWGQGTLVTVSS
VL: DIVMTQTPLSLPVTPGEPASISCKSSQSLLSSGNQKNYLTWYLQKPGQSPQLLIYWASTRESGVPDRFSGSGSGTDFTLKISRVEAEDVGVYYCQNDYTYPLTFGQGTKLEIK
notes: complete MAb; FR4 is its own entry; also called H177/L3
B2: M1638 (antibody, V domains shown)
VH: B1 VH with G30I, P31T, I52L, W57S
VL: B1 VL with S31W, S32F, G33V, W56H, Y98D, T99S
notes: complete MAb; FR4 is its own entry; also called H22/L138
B3: M1652 (antibody, V domains shown)
VH: B1 VH with G30A, I52L, S55T, W57F, N59T
VL: B1 VL with S31F, S32R, G33P, N34T, Y98D, T99S
notes: complete MAb; FR4 is its own entry; also called H171/L225
B4: M1606 (antibody, V domains shown)
VH: B1 VH with G30I, Y32H, I52L
VL: B1 VL
notes: complete MAb; FR4 is its own entry; also called H181/L3
B5: M1646 (antibody, V domains shown)
VH: B1 VH with G30A, I52L, S55T, W57F, N59T
VL: B1 VL with S31W, S32F, G33V, W56H, Y98D, T99S
notes: complete MAb; FR4 is its own entry; also called H171/L138
B6: M1596 (antibody, V domains shown)
VH: B1 VH with G30T, I52L, W57H, N59T
VL: B1 VL
notes: complete MAb; FR4 is its own entry; also called H185/L3
B7: M1605 (antibody, V domains shown)
VH: B1 VH with P31T, I52L, S55T, W57H, N59T
VL: B1 VL
notes: complete MAb; FR4 is its own entry; also called H168/L3
B8: M1586 (antibody, V domains shown)
VH: B1 VH with G30P, P31T, S55T
VL: B1 VL
notes: complete MAb; FR4 is its own entry; also called H164/L3
B9: M1610 (antibody, V domains shown)
VH: B1 VH with G30A, S55T, W57Y, N59T
VL: B1 VL
notes: complete MAb; FR4 is its own entry; also called H115/L3
B10: M1640 (antibody, V domains shown)
VH: B1 VH with G30I, P31T, I52L, W57S
VL: B1 VL with S31P, G33W, K36S, Y98F
notes: complete MAb; FR4 is its own entry; also called H22/L327
B11: M1592 (antibody, V domains shown)
VH: B1 VH with G30S, Y32H, I52L, W57Y, N59I
VL: B1 VL
notes: complete MAb; FR4 is its own entry; also called H165/L3
B12: M1641 (antibody, V domains shown)
VH: B1 VH with G30I, P31T, I52L, W57S
VL: B1 VL with S31F, G33A, K36R, E61D, Y98D
notes: complete MAb; FR4 is its own entry; also called H22/L335
B13: M1589 (antibody, V domains shown)
VH: B1 VH with Y32H, I52L, S55T, W57Y
VL: B1 VL
notes: complete MAb; FR4 is its own entry; also called H187/L3
B14: M1602 (antibody, V domains shown)
VH: B1 VH with G30D, P31A, Y32H, I52L, W57F, N59D
VL: B1 VL
notes: complete MAb; FR4 is its own entry; also called H106/L3
B15: M1604 (antibody, V domains shown)
VH: B1 VH with G30A, I52L, S55T, W57Y, N59W
VL: B1 VL
notes: complete MAb; FR4 is its own entry; also called H138/L3
B16: M1599 (antibody, V domains shown)
VH: B1 VH with I52L, S55T, W57Y, N59L
VL: B1 VL
notes: complete MAb; FR4 is its own entry; also called H130/L3
B17: M1597 (antibody, V domains shown)
VH: B1 VH with G30S, P31S, I52L, S55T, W57A, N59H
VL: B1 VL
notes: complete MAb; FR4 is its own entry; also called H134/L3
B18: M1601 (antibody, V domains shown)
VH: B1 VH with I52L, S55T, W57Y, N59V
VL: B1 VL
notes: complete MAb; FR4 is its own entry; also called H105/L3
B19: M1585 (antibody, V domains shown)
VH: B1 VH with G30S, Y32F, S55T, W57Y
VL: B1 VL
notes: complete MAb; FR4 is its own entry; also called H139/L3
B20: M1651 (antibody, V domains shown)
VH: B1 VH with G30A, I52L, S55T, W57F, N59T
VL: B1 VL with S31Y, S32V, G33Y, N34G, Y98F, T99S, Y100W
notes: complete MAb; FR4 is its own entry; also called H171/L162
B21: M1591 (antibody, V domains shown)
VH: B1 VH with G30R, S55T, W57Y
VL: B1 VL
notes: complete MAb; FR4 is its own entry; also called H122/L3
B22: M1649 (antibody, V domains shown)
VH: B1 VH with G30A, I52L, S55T, W57F, N59T
VL: B1 VL with S31F, G33A, K36R, E61D, Y98D
notes: complete MAb; FR4 is its own entry; also called H171/L335
B23: M1595 (antibody, V domains shown)
VH: B1 VH with G30Y, I52L, S55T, W57F
VL: B1 VL
notes: complete MAb; FR4 is its own entry; also called H160/L3
B24: M1653 (antibody, V domains shown)
VH: B1 VH with G30A, I52L, S55T, W57F, N59T
VL: B1 VL with S31Y, S32T, G33S, Y98D, T99Y, Y100W
notes: complete MAb; FR4 is its own entry; also called H171/L283
B25: M1598 (antibody, V domains shown)
VH: B1 VH with G30T, I52L, S55T, W57Y, N59V
VL: B1 VL
notes: complete MAb; FR4 is its own entry; also called H137/L3
B26: M1639 (antibody, V domains shown)
VH: B1 VH with G30I, P31T, I52L, W57S
VL: B1 VL with S31Y, K36R, E61S, Y98D, L102M
notes: complete MAb; FR4 is its own entry; also called H22/L320
B27: M1590 (antibody, V domains shown)
VH: B1 VH with G30L, S55T, W57F
VL: B1 VL
notes: complete MAb; FR4 is its own entry; also called H117/L3
B28: M1613 (antibody, V domains shown)
VH: B1 VH with G30S, P31S, Y32H, I52L, W57F, N59H, Q82K
VL: B1 VL
notes: complete MAb; FR4 is its own entry; also called H136/L3
B29: M1594 (antibody, V domains shown)
VH: B1 VH with G30P, I52L, S55T, W57Y, N59V
VL: B1 VL
notes: complete MAb; FR4 is its own entry; also called H158/L3
B30: M1588 (antibody, V domains shown)
VH: B1 VH with Y32F, I52L, W57Y
VL: B1 VL
notes: complete MAb; FR4 is its own entry; also called H179/L3
B31: M1587 (antibody, V domains shown)
VH: B1 VH with G30I, I52L, W57F, N59T
VL: B1 VL

For one test, the target named is T1, recombinant extracellular domain (ECD) of human TF, amino acid 1-219 of the mature chain, C-terminal His6-tag (human, UniProt P13726 33-251).
T1 construct: expressed in a mammalian system; used for ELISA and Biacore; biotinylated by NHS-ester for the Fab ELISA; also called His6-TF-ECD1-219; HumanTF1-219
The experiment in a line: Biacore. For orientation: Surface plasmon resonance follows binding to a sensor surface in real time, without labels.
The Kd is the equilibrium constant for the complex coming apart. As usually defined, the koff is the rate constant with which the complex falls apart. Usually kon stands for the rate constant with which the complex forms. Consider B1, for which the Kd came out at 0.42 nM, the koff amounted to 0.0001 s⁻¹ and the kon was 239000 M⁻¹ s⁻¹.
Take B2: the Kd turned out to be 0.2 nM.
Still for that read-out and setting: for B3 the value was 0.11 nM.
As for B4, the Kd came to 0.18 nM, the off-rate constant (koff) came out at 2.9e-05 s⁻¹ and the kon came out at 166000 M⁻¹ s⁻¹.
As to B5, the Kd was 0.19 nM.
Turning to B6, the Kd was 0.33 nM, the koff came out at 4.3e-05 s⁻¹ and the kon was found to be 131000 M⁻¹ s⁻¹.
As to B7, the Kd came to 0.64 nM, the koff came out at 8.6e-05 s⁻¹ and the kon turned out to be 135000 M⁻¹ s⁻¹.
On to B8, for which the Kd was 0.78 nM, the koff amounted to 0.000143 s⁻¹ and the kon came out at 184000 M⁻¹ s⁻¹.
For the molecule B9, the Kd was 0.54 nM, the koff stood at 0.0001 s⁻¹ and the kon turned out to be 184000 M⁻¹ s⁻¹.
With B10, the Kd came out at 0.76 nM.
With B11, the Kd was 0.4 nM, the koff was determined as 7.7e-05 s⁻¹ and the kon worked out at 191000 M⁻¹ s⁻¹.
B12: the Kd stood at 0.12 nM.
B13: the dissociation constant (Kd) stood at 0.4 nM, the koff was 7e-05 s⁻¹ and the kon was 174000 M⁻¹ s⁻¹.
Turning to B14, the Kd came to 0.62 nM, the koff is 8.2e-05 s⁻¹ and the kon was 132000 M⁻¹ s⁻¹.
Regarding B15, the Kd is 0.14 nM, the koff was 2.2e-05 s⁻¹ and the kon turned out to be 152000 M⁻¹ s⁻¹.
The corresponding values for B16 are 0.39 nM, 5.3e-05 s⁻¹ and 138000 M⁻¹ s⁻¹.
For B17, in that order: 0.8 nM, 6.6e-05 s⁻¹ and 83400 M⁻¹ s⁻¹.
Turning to B18, the Kd was 0.33 nM, the koff amounted to 4.6e-05 s⁻¹ and the kon turned out to be 137000 M⁻¹ s⁻¹.
B19: the Kd was 0.49 nM, the koff came to 9e-05 s⁻¹ and the kon was 185000 M⁻¹ s⁻¹.
In the case of B20, the Kd turned out to be 0.19 nM.
Regarding B21, the Kd came out at 0.41 nM, the koff was found to be 5.6e-05 s⁻¹ and the kon amounted to 134000 M⁻¹ s⁻¹.
In the case of B22, the dissociation constant (Kd) worked out at 0.17 nM.
Turning to B23, the dissociation constant Kd was determined as 0.39 nM, the koff was determined as 6.8e-05 s⁻¹ and the kon turned out to be 176000 M⁻¹ s⁻¹.
As to B24, the Kd was determined as 0.16 nM.
B25: the Kd was 0.33 nM, the koff turned out to be 6.3e-05 s⁻¹ and the kon worked out at 192000 M⁻¹ s⁻¹.
With B26, the Kd was 0.08 nM.
On to B27, for which the Kd turned out to be 0.69 nM, the koff came out at 0.000109 s⁻¹ and the kon is 159000 M⁻¹ s⁻¹.
The corresponding values for B28 are 0.92 nM, 7e-05 s⁻¹ and 75700 M⁻¹ s⁻¹.
Turning to B29, the Kd amounted to 0.35 nM, the koff is 4.3e-05 s⁻¹ and the kon was found to be 124000 M⁻¹ s⁻¹.
Take B30: the Kd was 0.35 nM, the koff is 6e-05 s⁻¹ and the kon was 173000 M⁻¹ s⁻¹.

A further test concerns the target Innovin, lyophilized recombinant human tissue factor combined with phospholipids (human, UniProt P13726 33-295, limits assumed). The experiment in a line: cell-based or functional assay. Also: test concentration or dose not given here.
B1: the “T½ Max (seconds), coagulation of human plasma” value (“T½ Max (seconds), coagulation” below) was found to be 189 s.
On to B2, for which the “T½ Max (seconds), coagulation” value was 163 s.
On the same count and under the same terms, for B4 the value was 157 s; for B6, 163 s; for B7, 160 s.
Still for that read-out and setting: for B31 the value was 202 s.
Still for that read-out and setting: for B8 the value was 200 s; for B9, 164 s; for B10, 168 s.
For B11, the “T½ Max (seconds), coagulation” value is 163 s.
For B12, the “T½ Max (seconds), coagulation” value was determined as 162 s.
For B13, the “T½ Max (seconds), coagulation” value was 202 s.
As to B14, the “T½ Max (seconds), coagulation” value turned out to be 163 s.
As for B15, the “T½ Max (seconds), coagulation” value is 165 s.
Same read-out and setting: for B16 the value was 151 s; for B17, 157 s; for B18, 180 s.
On the same count and under the same terms, for B19 the value was 205 s.
With B21, the “T½ Max (seconds), coagulation” value stood at 154 s.
On to B23, for which the “T½ Max (seconds), coagulation” value is 163 s.
On the same count and under the same terms, for B25 the value was 155 s; for B26, 167 s.
Same read-out and setting: for B27 the value was 180 s.
For B28, the “T½ Max (seconds), coagulation” value is 165 s.
Turning to B29, the “T½ Max (seconds), coagulation” value came out at 165 s.
As for B30, the “T½ Max (seconds), coagulation” value stood at 207 s.
